Laboratory results taken from patent US20240123058A1.

What was measured:
[1] = target: EBV gB protein ectodomain (24-683 aa) of the substituted M81 strain gB protein, C-terminal 6×His tag (EBV M81 strain) (UniProt P0C762); assay: competition ELISA on coated gB: unlabelled primary antibody at 10 µg/mL, then HRP-labelled 3A3 as secondary
[2] = target: EBV gB protein ectodomain (24-683 aa) of the substituted M81 strain gB protein, C-terminal 6×His tag (EBV M81 strain) (UniProt P0C762); assay: competition ELISA on coated gB: unlabelled primary antibody at 10 µg/mL, then HRP-labelled 3A5 as secondary
[3] = target: EBV gB protein ectodomain (24-683 aa) of the substituted M81 strain gB protein, C-terminal 6×His tag (EBV M81 strain) (UniProt P0C762); assay: competition ELISA on coated gB: unlabelled primary antibody at 10 µg/mL, then HRP-labelled AMMO5 as secondary

## mouse monoclonal antibody 72A1
[1]
  competition rate: -1.4%
[2]
  competition rate: 8%
[3]
  competition rate: -9.3%
